Measured values from PMC7017424, “Effects of Substrate-Binding Site Residues on the Biochemical Properties of a Tau Class Glutathione S-Transferase from Oryza sativa” (Genes, 2019).
Where a chain is given by its changes, count along the chain named. Numbers in names are those of the source.

T1: OsGSTU17 (Oryza sativa, UniProt Q93WY5)
T1 construct: about 25 kDa subunit; dimeric enzyme; mutants L112A and W165A expressed at 20 °C
T1 sequence (Q93WY5 1-223): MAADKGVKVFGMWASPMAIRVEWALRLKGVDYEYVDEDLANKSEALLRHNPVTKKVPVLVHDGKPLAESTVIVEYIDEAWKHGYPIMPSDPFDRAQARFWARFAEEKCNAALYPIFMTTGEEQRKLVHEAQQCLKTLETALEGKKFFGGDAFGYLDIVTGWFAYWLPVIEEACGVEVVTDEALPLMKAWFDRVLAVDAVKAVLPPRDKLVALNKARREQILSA

B1: OsGSTU17 (Oryza sativa Japonica Group; W161A) (protein)
chain: T1 sequence (Q93WY5 1-223) with W161A
notes: about 25 kDa subunit; dimeric enzyme; mutants L112A and W165A expressed at 20 °C
B2: OsGSTU17 (Oryza sativa Japonica Group; L112A) (protein)
chain: T1 sequence (Q93WY5 1-223) with L112A
notes: as for B1
B3: OsGSTU17 (Oryza sativa Japonica Group; N109A) (protein)
chain: T1 sequence (Q93WY5 1-223) with N109A
notes: as for B1
B4: OsGSTU17 (Oryza sativa Japonica Group; F162A) (protein)
chain: T1 sequence (Q93WY5 1-223) with F162A
notes: as for B1
B5: OsGSTU17 (Oryza sativa Japonica Group; M17A) (protein)
chain: T1 sequence (Q93WY5 1-223) with M17A
notes: as for B1

Legend:
[1] = biological target: T1, OsGSTU17; test: absorbance at […] nm, initial rate […] s, non-linear regression (Hyper32); type: biochemical; details: 1.0 mM GSH fixed, NBD-Cl 0.1-1.0 mM, 25 °C; apparent Km; wild-type value 'detected again', obtained from Yang et al. [31]; read-out: NBD-Cl / K m /; cited from earlier work
[2] = substrate: O=[N+]([O-])c1ccc(Cl)c2nonc12; test: purified protein; type: biochemical, Oryza sativa; details: 1.0 mM GSH fixed, NBD-Cl 0.1-1.0 mM, 25 °C, apparent Km

| Molecule | Km [1] [µM] | Km ([2]; Km above tested range) [µM] | Vmax ([2]; Km above tested range) [µM/min/mg] | kcat ([2]; Km above tested range) [s⁻¹] | kcat/Km ([2]; Km above tested range) [M⁻¹ s⁻¹] | Km [2] [µM] | Vmax [2] [µM/min/mg] | kcat [2] [s⁻¹] | kcat/Km [2] [M⁻¹ s⁻¹] |
| --- | --- | --- | --- | --- | --- | --- | --- | --- | --- |
| O=[N+]([O-])c1ccc(Cl)c2nonc12 [NBD-Cl, 7-chloro-4-nitrobenzo-2-oxa-1,3-diazole] | 324 ± 16 | – | – | – | – | – | – | – | – |
| B1 | – | 1117 ± 22 | 0.594 | 0.999 | 894 | – | – | – | – |
| B2 | – | 1487 ± 79 | 0.896 | 1.75 | 1180 | – | – | – | – |
| B3 | – | – | – | – | – | 781 ± 34 | 0.364 | 0.266 | 341 |
| B4 | – | 3866 ± 871 | 0.869 | 1.57 | 407 | – | – | – | – |
| B5 | – | 3661 ± 843 | 0.83 | 0.809 | 221 | – | – | – | – |
